Experimental findings from the supplement of paper PMC10567573 are described below.

± gives the standard deviation.

This data set is described as follows: protein stability index of a GFP-peptide fusion (GPS, HEK-293T) (PSI 1-6); higher = more stable.
The mark [1] stands for this setting: treatment: DMSO, c terminus: a fixed tail appended.
[2] abbreviates: treatment: MLN4924 1 uM, 8 h, c terminus: a fixed tail appended.
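Also: 24-mer peptide tiles fused after GFP, lentivirally expressed, FACS-sorted into six equal bins by GFP/DsRed ratio, decoded by Illumina sequencing, PSI is the read-weighted mean bin number.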

Take SSNVSLSLFVLDQNDNAPEILYPA [PCDHGA10]: the protein stability index was found to be 2.48 ± 0.13 under setting [1] and 2.38 ± 0.29 under setting [2].
For DVKDWWLFGFYFCMPLVCTAIFYT [EDNRA], the protein stability index is, setting by setting: under setting [1], 2.76 ± 0.45; under setting [2], 3.56 ± 0.84.
For the sequence SMQEDEQSGRDLQQYQSQAKQLFR [SEC22B], the protein stability index is 4.22 ± 0.17 under setting [1] and 4.35 ± 0.19 under setting [2].
In turn, LIHKADEVTLSEAGSTAGAAETRG [PALM] showed a protein stability index under setting [1] of 5.31 ± 0.2 and a protein stability index under setting [2] of 5.18 ± 0.15.
In turn, LAVRGSRRERELERRELAVEQGER [ZBED3] gave a protein stability index under setting [1] of 5.05 ± 0.2 and a protein stability index under setting [2] of 5.07 ± 0.18.
YEFQIPYICPDYQSYFKTIEDFQQ [KRT36]: the protein stability index turned out to be 2.28 ± 0.3 under setting [1] and 2.07 ± 0.3 under setting [2].
For VADIDGQYAMTRAQRVRAAMFPET [CTNNB1] the same measures were 3.65 ± 0.25 and 3.6 ± 0.24.
For the sequence AIHYCASTSEESWTDSEVDSSCSG [SPDEF], the protein stability index is, setting by setting: under setting [1], 5.28 ± 0.2; under setting [2], 5.18 ± 0.37.
MAAGQNGHEEWVGSAYLFVESSLD [TRADD]: the protein stability index by setting is: under setting [1], 2.05 ± 0.26; under setting [2], 2.65 ± 0.37.
KMKYKGQYRPSDLLCPETYVWVPI [ATE1]: the protein stability index is 2.01 ± 0.39 under setting [1] and 2.03 ± 0.26 under setting [2].
On to HSFFPDAFDYNSLSPTQRQKNFEL [SMTNL2], for which the protein stability index was 3.35 ± 0.19 under setting [1] and 3.44 ± 0.4 under setting [2].
Take VLEENGEKNQVQLGKLEATIKSLS [SASS6]: the protein stability index was 3.98 ± 0.43 under setting [1] and 3.79 ± 0.16 under setting [2].
Consider EDQEEWHAQVVEELSNFKSQKVLG [ZBED1], for which the protein stability index by setting is: under setting [1], 5.41 ± 0.21; under setting [2], 5.54 ± 0.21.
For SKLSRKYVKAKKSIDKDEEFAGSS [FAN1] the same measures were 4.84 ± 0.14 and 4.64 ± 0.31.
Regarding KETEFLRLKRTRLGLDDFESLKVI [STK38L], the protein stability index under setting [1] stood at 2.44 ± 0.16 and the protein stability index under setting [2] is 2.56 ± 0.34.
Regarding QGHLRRLRSRYSVASFKFDAGEVS [MYORG], the protein stability index is, setting by setting: under setting [1], 2.93 ± 0.26; under setting [2], 3.27 ± 0.33.
Sequence VARPVRFPREHQFFEDGDVQRHLY [ZNF511] came in with a protein stability index under setting [1] of 3.31 ± 0.17 and a protein stability index under setting [2] of 3.55 ± 0.38.
For EPSSSKDSDENSKPSVDTEGPALV [MIA2], in that order: 5.53 ± 0.45 and 5.51 ± 0.25.
The sequence PKVEYVWRNIILMSLLHLGALYGI [SCD] yielded a protein stability index under setting [1] of 3.26 ± 0.5 and a protein stability index under setting [2] of 3.48 ± 0.06.
For KKQLADETLLKVDLENRCQSLTED [LMNB1], the protein stability index by setting is: under setting [1], 5.13 ± 0.23; under setting [2], 5.31 ± 0.076.
In turn, DVQNKLKESAQCVGDEFLNCKLAT [SNX8] came in with a protein stability index under setting [1] of 3.43 ± 0.21 and a protein stability index under setting [2] of 3.42 ± 0.24.
For SNLSTRDASILTEMPTQPGKPLIP [NETO1], in that order: 4.52 ± 0.18 and 4.57 ± 0.26.
With LKLVAHPRAKSKVWKYFGFDTNAE [ZBED1], the protein stability index was determined as 2.23 ± 0.39 under setting [1] and 2.25 ± 0.26 under setting [2].
With GAPTSLQTEPQDRSPAPMSCDKST [BCL2L11], the protein stability index under setting [1] came to 5.36 ± 0.3 and the protein stability index under setting [2] amounted to 5.36 ± 0.1.
For AVKLADFGLAIEVEGEQQAWFGFA [CAMK2A], in that order: 2.51 ± 0.48 and 2.26 ± 0.5.
For YANAVLQALSNVPPLRNYFLEEDN [USP39], in that order: 2.19 ± 0.072 and 2.12 ± 0.24.
For QHLDPQGAQELLEFTIRDLQRLGE [INTS4] the same measures were 3.53 ± 0.4 and 3.81 ± 0.46.
Turning to TINPSKRITAAEALKHPWISHRST [CAMK2A], the protein stability index reads like this: under setting [1], 3.06 ± 0.23; under setting [2], 3.21 ± 0.2.
As to IQGYRVYYTMDPTQHVNNWMKHNV [PTPRD], the protein stability index came to 2.55 ± 0.25 under setting [1] and 2.44 ± 0.47 under setting [2].
For FERLCLTWMFFFMMCVAERTYKQR [PHTF1], in that order: 2.82 ± 0.54 and 3.3 ± 0.49.
For SLLNKKADGVKPQTNSTKNSAAAT [CAMK2B], the protein stability index amounted to 4.43 ± 0.055 under setting [1] and 4.34 ± 0.23 under setting [2].
With WGPSGQLMGEIAKATFMYEQFPEL [CLINT1], the protein stability index was determined as 1.97 ± 0.38 under setting [1] and 2.06 ± 0.23 under setting [2].
Sequence SIVTAAKKDILLVNDHLLNFVRER [PDS5B] displayed a protein stability index under setting [1] of 2.25 ± 0.16 and a protein stability index under setting [2] of 2.3 ± 0.27.
For the sequence RAMRYYYKREILERVDGRRLVYKF [ELF3], the protein stability index reads like this: under setting [1], 2.49 ± 0.15; under setting [2], 2.63 ± 0.41.
On to QIEKTTNREACRDLSGRRLRDVNH [SDE2], for which the protein stability index reads like this: under setting [1], 4.18 ± 0.24; under setting [2], 4.11 ± 0.6.
With PCYSRQFITSCPCWLEILLNNPR [SMAD6], the protein stability index was 2.92 ± 0.28 (treatment: DMSO, c terminus: native) and 2.77 ± 0.42 (treatment: MLN4924 1 uM, 8 h, c terminus: native).
For the sequence ADPLRVSSRDKLTEMAASSQGNFE [FUNDC2], the protein stability index runs as follows: under setting [1], 4.96 ± 0.2; under setting [2], 5.18 ± 0.26.
IGFGVYFEWTDSPNTAVSVHVSES [ACBD3]: the protein stability index reads like this: under setting [1], 2.64 ± 0.9; under setting [2], 2.95 ± 0.6.
Take AAHRLARRLYHLEGFQRCDVARQL [PSD2]: the protein stability index runs as follows: under setting [1], 2.21 ± 0.43; under setting [2], 2.46 ± 0.46.
With AGGAGGGVTEEQEGFADGFVKALD [JUNB], the protein stability index by setting is: under setting [1], 5.32 ± 0.17; under setting [2], 5.35 ± 0.085.
As to LSSSCCHTVPDFHLSSPAKNFFKK [PLK2], the protein stability index by setting is: under setting [1], 2.99 ± 0.18; under setting [2], 3.25 ± 0.31.
Regarding LNQKGTAVETEGSGSRHPPWARGC [SLC2A12], the protein stability index runs as follows: under setting [1], 3.98 ± 0.29; under setting [2], 4.08 ± 0.38.
For GIVLQGPALCFAAAIFSLFFVPLS [TMEM175], in that order: 2.89 ± 0.34 and 2.83 ± 0.17.
Turning to VMVRWNKSLEWSPWNCILLTKDEA [IQUB], the protein stability index stood at 2.57 ± 1 under setting [1] and 2.25 ± 0.35 under setting [2].
For LRVGIPENAPIGTLLLRLNATDPD [PCDHGC5], the protein stability index runs as follows: under setting [1], 2.92 ± 0.18; under setting [2], 3.22 ± 0.32.
Consider IGLWGLAVKGSLGSDLGGPLPTDP [TSPAN10], for which the protein stability index came out at 2.32 ± 0.27 under setting [1] and 2.39 ± 0.29 under setting [2].
For LRREPSERLTAPEILLHPWFESVL [TRIB1] the same measures were 2.51 ± 0.25 and 2.74 ± 0.52.
For ERQDMYQCLVEGCTEKFKTSRDRK [ZNF511] the same measures were 4.09 ± 0.48 and 4.29 ± 0.25.
For EFPADISSITEAVPSESEPPALQN [NFE2L1], in that order: 5.31 ± 0.36 and 5.44 ± 0.22.
As for QNPQITQLKIAANPFAKGFRENGR [TBX6], the protein stability index reads like this: under setting [1], 3.33 ± 0.29; under setting [2], 3.35 ± 0.46.
For FLTTAIRPHGIFGPRDPQLVPILI [NSDHL], in that order: 2.69 ± 0.53 and 2.42 ± 0.41.
As to SVDIWAIGCVFAELLTGQPLWPGK [CDKL4], the protein stability index is, setting by setting: under setting [1], 2.6 ± 1.3; under setting [2], 3.02 ± 0.97.
In the case of IHDSEFKEYTTRTQAPPSVILGVT [DENND6A], the protein stability index is, setting by setting: under setting [1], 3.22 ± 0.17; under setting [2], 3.29 ± 0.31.
On to RCHTVPCAGSTALQEPGEPQGPPA [PXN], for which the protein stability index reads like this: under setting [1], 4.89 ± 0.15; under setting [2], 4.92 ± 0.25.
Sequence AASPELSALEEAFRRFAVHGDARA [TPPP] yielded a protein stability index under setting [1] of 3.73 ± 0.12 and a protein stability index under setting [2] of 3.74 ± 0.26.
On to KAFWKEDNALWERDRNLLQEDKAL [CCDC70], for which the protein stability index under setting [1] is 4.16 ± 0.081 and the protein stability index under setting [2] worked out at 4.24 ± 0.18.
For GQALLTHLYQSSARRYAGPLHHQT [ELAVL3] the same measures were 2.4 ± 0.14 and 2.71 ± 0.097.
For TKCRKRKLERIARLEDKVKTLKAE [JUNB] the same measures were 4.28 ± 0.23 and 4.42 ± 0.29.
In the case of SFRQGMHLTRHQRTHTGEKPYKCT [ZNF263], the protein stability index by setting is: under setting [1], 3.57 ± 0.65; under setting [2], 3.7 ± 0.49.
For ILDAMAEETRQKQLLADEKMKQLT [TRIM35] the same measures were 4.52 ± 0.23 and 4.68 ± 0.21.
For LLSLKQNHEQEVNTLRCQLGDRLN [KRT33B], in that order: 3.38 ± 0.16 and 3.46 ± 0.2.
In the case of MEIMEAYSVARQFNLTPPICEQAE [KCNAB2], the protein stability index was 3.72 ± 0.18 under setting [1] and 3.65 ± 0.33 under setting [2].
Take LEPLGAPQAPAPATATDTFEAAPP [CEBPB]: the protein stability index is, setting by setting: under setting [1], 5.38 ± 0.42; under setting [2], 5.39 ± 0.44.
For the sequence SVPLAYFLLSQQTDLPECEQSSAR [TCF25], the protein stability index is 3.07 ± 0.25 under setting [1] and 2.89 ± 0.5 under setting [2].
With GEVLKSSTFSSGPSDKMKWCLRVN [SPOPL], the protein stability index came to 2.46 ± 0.26 under setting [1] and 2.43 ± 0.23 under setting [2].
For the sequence QEHKTDEMHTALMEACMDGHVEVA [ANKRD17], the protein stability index by setting is: under setting [1], 5.19 ± 0.4; under setting [2], 5.31 ± 0.21.
For the sequence KTEQQRRREKAVHRLRVQQAALRA [NOP53], the protein stability index runs as follows: under setting [1], 3.98 ± 0.42; under setting [2], 4.13 ± 0.18.
CAFVGALGGAAFLGTAIFIEADRR [SPNS1] registered a protein stability index under setting [1] of 2.8 ± 0.78 and a protein stability index under setting [2] of 2.36 ± 0.67.
Regarding VRILLRRGVDVSLQGKDAWLPLHY [RIPK4], the protein stability index under setting [1] came to 2.99 ± 1.7 and the protein stability index under setting [2] is 2.29 ± 0.44.
For EWAALGNMSKEDAMVEFVKLLNRC [ACBD3], in that order: 2.48 ± 0.22 and 2.59 ± 0.3.
In turn, LLRFAQVFSQMIHLNETVKAPDIE [FEM1B] displayed a protein stability index under setting [1] of 2.67 ± 1.1 and a protein stability index under setting [2] of 2.46 ± 0.85.
For FRQLCYQETPGPREALTRLQELCY [ZSCAN9], in that order: 2.48 ± 0.14 and 2.62 ± 0.25.
